Measurements published in the supplement of paper PMC10724198.
± gives the standard deviation of the averaged measurements.

tested on: Saccharomyces cerevisiae; assay: protein stability index of tFT-peptide fusion (C-terminal peptide) (PSI (0-1 scale)); higher = more stable (slower turnover); conditions: genetic background: wild type; temperature: 30 C
Experimental: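 Multiplexed protein stability (MPS) profiling in S. cerevisiae. Random 12-aa peptides (tFT-X12 library) are fused to the C-terminus of a sfGFP-mCherry tandem fluorescent timer, after mCherry and a GGGS linker. Cells are FACS-sorted into 8 mCherry/sfGFP bins and deep-sequenced. The protein stability index (PSI) is the read-weighted bin average, scaled from 0 (unstable) to 1 (stable). Only peptides with >10 reads are reported; cells were grown at 30 °C in SC-His with glucose.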
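Also: PSI is a weighted mean of sequencing reads over stability bins, variants kept only with over 10 reads, mCherry proximal and sfGFP distal, peptide attached via GGGS linker.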

| Sequence | protein stability index |
| --- | --- |
| GVLGRVRLGWVG | 0.671 ± 0.012 |
| GVLKQGSLPCRD | 0.706 ± 0.14 |
| GVLSYCGFVTFG | 0.603 ± 0.02 |
| GVMCRTGSGMVM | 0.711 ± 0.021 |
| GVNDRLIKMSCA | 0.667 ± 0.033 |
| GVPFPGPNTLIL | 0.73 ± 0.075 |
| GVRGLLAGGGVW | 0.709 ± 0.027 |
| GVRRSRAARVRK | 0.777 ± 0.18 |
| GVTYEDFWGYCG | 0.797 ± 0.018 |
| GVVGGGGEAWRE | 0.794 ± 0.038 |
| GVVGTVEGGATG | 0.658 ± 0.037 |
| GVVGVWRGAGWR | 0.717 ± 0.041 |
| GVVSSHVDMIGL | 0.668 ± 0.0067 |
| GVVVGCGYGLVG | 0.665 ± 0.04 |
| GVVWMSCGGGGG | 0.7684 ± 0.0017 |
| GVWEGLQLGLIS | 0.7826 ± 0.0032 |
| GVWGGGGGWGVA | 0.688 ± 0.0096 |
| GVWPVGWWCRGR | 0.748 ± 0.047 |
| GWCACFMGSGWG | 0.703 ± 0.06 |
| GWCRSYVAFGVY | 0.64 ± 0.052 |
| GWDRDQKPENKE | 0.738 ± 0.045 |
| GWFTMLTGAFAE | 0.7249 ± 0.003 |
| GWGGGAAQKCGQ | 0.7 ± 0.039 |
| GWGGGGFRVVVG | 0.782 ± 0.049 |
| GWGMVLYRNMML | 0.6039 ± 0.0046 |
| GWGRGGFRVVVG | 0.712 ± 0.02 |

| Sequence | protein stability index |
| --- | --- |
| GWLASPHFPYAY | 0.6883 ± 0.001 |
| GWLIWRVYGGGG | 0.654 ± 0.014 |
| GWSRCVFGGYRL | 0.7 ± 0.022 |
| GWSSTLTFLGGA | 0.701 ± 0.0078 |
| GWTQFVLHSMFG | 0.72 ± 0.088 |
| GWVPCGSWRVPG | 0.631 ± 0.038 |
| GWVQRGAEARRE | 0.705 ± 0.047 |
| GWWGCGASVCGV | 0.72 ± 0.15 |
| GYARESERFGIH | 0.694 ± 0.011 |
| GYFHADYIPLSY | 0.7474 ± 0.0029 |
| GYGPSFALRPDS | 0.651 ± 0.026 |
| GYGWGVGWGFGR | 0.673 ± 0.028 |
| GYMRMGLCVYSD | 0.596 ± 0.092 |
| GYRGMERGEGGG | 0.723 ± 0.068 |
| GYTSRGISFLRA | 0.698 ± 0.042 |
| GYVVVGGGGGLG | 0.717 ± 0.039 |
| HAQRTSSRRAKS | 0.711 ± 0.019 |
| HARFRPRKAVGD | 0.67 ± 0.042 |
| HATFSLFLASCY | 0.625 ± 0.011 |
| HCLIPGEIHRIS | 0.6741 ± 0.0037 |
| HCRDCLVLIQFN | 0.664 ± 0.048 |
| HCSLRPRPNHAR | 0.746 ± 0.032 |
| HDHEARHSDSLN | 0.658 ± 0.026 |
| HDRRGLRRISAT | 0.647 ± 0.0084 |
| HEHFRDRAGPAS | 0.636 ± 0.017 |
| HEVRGVFWNPRF | 0.712 ± 0.053 |

| Sequence | protein stability index |
| --- | --- |
| HFPIPPSLFFRP | 0.631 ± 0.019 |
| HGLFGRACRASH | 0.66 ± 0.043 |
| HGTVQNIVARYV | 0.611 ± 0.026 |
| HHGCATVTSRAS | 0.654 ± 0.042 |
| HHPKTCHHLSRA | 0.6853 ± 0.0037 |
| HHRNNTPLNHSY | 0.63 ± 0.007 |
| HIFQRMCKDMQL | 0.6296 ± 0.0037 |
| HIKAEKRKKKTS | 0.608 ± 0.024 |
| HISRTLVDADIG | 0.66928 ± 8e-05 |
| HISTQREEIDPA | 0.6506 ± 0.00086 |
| HITTNHLPTSCD | 0.73 ± 0.039 |
| HLGIGTRVWEFG | 0.716 ± 0.061 |
| HLLLGPRSPPSP | 0.661 ± 0.022 |
| HLPASLHLDYSI | 0.675 ± 0.043 |
| HLPPFLRPPFPL | 0.686 ± 0.017 |
| HLSNPRPPPPTR | 0.703 ± 0.016 |
| HNMSDARRPSNI | 0.702 ± 0.021 |
| HPCKKEKLYHLK | 0.594 ± 0.091 |
| HPDAGTAARDTD | 0.648 ± 0.092 |
| HPFGHSFLTAPF | 0.793 ± 0.16 |
| HPGPAPPPPRGP | 0.66 ± 0.019 |
| HPLLPRPVPLTD | 0.665 ± 0.059 |
| HPLPSSHLPPRP | 0.75 ± 0.15 |
| HPLPTPSPHLSP | 0.728 ± 0.016 |
| HPPLPLPCAFPP | 0.7 ± 0.033 |
| HPPLPPPPIVPS | 0.696 ± 0.067 |

| Sequence | protein stability index |
| --- | --- |
| HPPLSPPSALFL | 0.719 ± 0.069 |
| HPPPPAAKVAPV | 0.629 ± 0.048 |
| HPPPTHAQGRLV | 0.671 ± 0.021 |
| HPPTSPGGLRQP | 0.686 ± 0.0069 |
| HPSRPARPTRHP | 0.806 ± 0.072 |
| HPTTHYLPRPAH | 0.6779 ± 0.0022 |
| HPVPSPSLRPPP | 0.716 ± 0.072 |
| HRCLSRTVSPPS | 0.671 ± 0.04 |
| HRKNKYKRKTTK | 0.676 ± 0.05 |
| HRVRVRVYTCGF | 0.634 ± 0.05 |
| HSGLTGLRRLVA | 0.594 ± 0.012 |
| HSLPPPCLHSTP | 0.683 ± 0.021 |
| HSPHISAPPLPY | 0.588 ± 0.024 |
| HSPPPPPALLPL | 0.66 ± 0.028 |
| HSPTPLLPPSPS | 0.727 ± 0.045 |
| HSRKVHGLWALR | 0.695 ± 0.0081 |
| HSSFCIVIRVSR | 0.5125 ± 0.001 |
| HTKHSQIIKHQS | 0.641 ± 0.03 |
| HTTPGPYVLPWP | 0.807 ± 0.06 |
| HVALPAFKQLSG | 0.746 ± 0.051 |
| HVLQFQTNIRQN | 0.636 ± 0.1 |
| HVLSQSLSALPC | 0.681 ± 0.044 |
| HVPGKWTLGFGI | 0.761 ± 0.054 |
| HVSINERFKSMY | 0.717 ± 0.025 |
| HVTLGRGGVGPN | 0.681 ± 0.02 |
| IACGAGGRGFSC | 0.721 ± 0.025 |

| Sequence | protein stability index |
| --- | --- |
| IAISAPSLLDTS | 0.643 ± 0.026 |
| IALLQRTSSTPD | 0.748 ± 0.028 |
| IARLLFPPPGPI | 0.643 ± 0.037 |
| IASLVSVCFLRD | 0.683 ± 0.029 |
| IASNAENCDVGV | 0.695 ± 0.11 |
| ICFGCLSWAGSW | 0.554 ± 0.057 |
| ICLLGTSSQRRD | 0.705 ± 0.0077 |
| ICPWLLPPSCRS | 0.738 ± 0.015 |
| ICSDGIYTKGLC | 0.66 ± 0.024 |
| ICSFVFTTLFGG | 0.6442 ± 0.0026 |
| ICVSVLIRHREL | 0.545 ± 0.019 |
| IDRSHFAGVIVC | 0.5735 ± 0.0029 |
| IEESNKKIKNEI | 0.713 ± 0.032 |
| IEITERRQKKIQ | 0.699 ± 0.088 |
| IENREVNIVERT | 0.686 ± 0.011 |
| IENVETSLKVVG | 0.651 ± 0.0081 |
| IESKANPRRIEV | 0.696 ± 0.027 |
| IFCCFFPRFPVF | 0.642 ± 0.013 |
| IFKAIDQTYTDK | 0.758 ± 0.15 |
| IFWVGLSYVAEQ | 0.65 ± 0.0084 |
| IGARESGGWSLC | 0.686 ± 0.023 |
| IGFHSGLFYYHC | 0.594 ± 0.056 |
| IGGAPRIETIYP | 0.704 ± 0.074 |
| IGGLAGFGSALT | 0.759 ± 0.12 |
| IGGPIIYTGRLH | 0.682 ± 0.19 |
| IGISIRTAQGEL | 0.674 ± 0.02 |

| Sequence | protein stability index |
| --- | --- |
| IGMICYGKDTQY | 0.726 ± 0.0073 |
| IGRWHCPDLPRH | 0.653 ± 0.12 |
| IGWFGRCGCCCW | 0.714 ± 0.2 |
| IGYSSIYKTTGT | 0.668 ± 0.033 |
| IHLGVLTAFGLS | 0.701 ± 0.032 |
| IIAGGGPARGCG | 0.635 ± 0.0071 |
| IIGPFDSYVYGL | 0.7 ± 0.0071 |
| IIGVKNEGRGRE | 0.724 ± 0.089 |
| IILKEDKSIKKR | 0.6595 ± 0.0032 |
| IITAARGDTLSR | 0.706 ± 0.018 |
| IKDESNLKKHKN | 0.715 ± 0.041 |
| IKGKYYEAKNKI | 0.714 ± 0.054 |
| IKKKKKKKKKRQ | 0.668 ± 0.027 |
| IKKKKKVRYIRI | 0.705 ± 0.06 |
| IKKKKNKKENAE | 0.725 ± 0.092 |
| IKKKTTKTKIKK | 0.741 ± 0.031 |
| IKKNKQNKIKRN | 0.699 ± 0.016 |
| IKNRRTSKYLII | 0.548 ± 0.0058 |
| IKPKKKEKKQEN | 0.704 ± 0.046 |
| IKRYYLDSMKRK | 0.576 ± 0.0069 |
| IKSHHVIPNSCL | 0.616 ± 0.058 |
| IKSKCIQSKETT | 0.6037 ± 0.005 |
| IKVRGEQAEEAE | 0.684 ± 0.04 |
| ILFLRFLHSVFS | 0.5364 ± 0.0038 |
| ILGPPPRLPFPS | 0.657 ± 0.012 |
